Reference: patent US20250277029A1 (Amgen, published 2025)

Assays:
[1] = target: T1, huCB1 nanodisc (CB1-ND) (human, UniProt P21554 99-414); test: Octet BLI; antibody captured by anti-human Fc, CB1-nanodisc in solution, 1:1 model
T1 construct: The His-tagged CB1 is embedded in a POPC lipid nanodisc with MSP1D1 scaffold protein (molar ratio 480:8:1); also called huCB1-ND; #CB1-008

[2] = target: human cannabinoid receptor 1 (huCB1), full length, expressed on cells (human, UniProt P21554 1-472); test: cell-based or functional assay
[3] = target: T1, huCB1 nanodisc (CB1-ND); test: flow cytometry, yeast-displayed Fab, 0.2 nM CB1-ND, after background subtraction
[4] = target: T2, GFP-fused huCB1 in styrene maleic acid lipoparticles (CB1-SMALP-GFP) (human, UniProt P21554 1-472); test: flow cytometry, yeast-displayed Fab, 2.5 nM CB1-SMALP-GFP, after background subtraction
T2 construct: Prepared as described in Luna V. et al. 2018; also called huCB1-GFP-SMALP; GFP-tagged huCB1-SMALP; not shown: GFP fused to huCB1

[5] = target: empty nanodisc (Empty ND); test: flow cytometry, yeast-displayed Fab, 50 nM Empty ND, after background subtraction
[6] = target: T3, GFP-fused huCB1-SMALP (human CB1 in styrene maleic acid lipoparticles) (human, UniProt P21554 1-472); test: flow cytometry, yeast-displayed IgG, GFP MFI
T3 construct: Prepared as in Luna V. et al. 2018; also called huCB1-GFP-SMALP; wtCB1-SMALP; not shown: GFP fusion

[7] = target: T4, mouse CB1 (mouse, UniProt P47746 1-473); test: fold over mock (Table 14)
T4 construct: also called muCB1; murine CB1

[8] = target: T5, human cannabinoid receptor type 2 (CB2) (human, UniProt P34972 1-360); test: fold over mock (Table 14)
T5 construct: also called huCB2; full length hu CB2

[9] = target: T6, His-tagged huCB1-ND (human CB1 in nanodisc) (human); test: flow cytometry, yeast-displayed IgG, binding/display ratio
T6 construct: CB1 construct of Cell 167(3) (2016) 750-762 expressed in Sf9 cells; POPC:MSP1D1:CB1 480:8:1; also called CB1-nanodisc; huCB1-Nanodisc; not shown: histidine purification tag

[10] = target: T7, empty-ND (nanodisc without CB1); test: as above
T7 construct: its only protein is the nanodisc scaffold; also called Empty Nanodisc

[11] = target: T3, GFP-fused huCB1-SMALP (human CB1 in …); test: flow cytometry, yeast-displayed IgG, GFP MFI; remark: listed apart in the source

human cannabinoid receptor 1 (huCB1), full length, expressed on cells, sequence (P21554 whole entry): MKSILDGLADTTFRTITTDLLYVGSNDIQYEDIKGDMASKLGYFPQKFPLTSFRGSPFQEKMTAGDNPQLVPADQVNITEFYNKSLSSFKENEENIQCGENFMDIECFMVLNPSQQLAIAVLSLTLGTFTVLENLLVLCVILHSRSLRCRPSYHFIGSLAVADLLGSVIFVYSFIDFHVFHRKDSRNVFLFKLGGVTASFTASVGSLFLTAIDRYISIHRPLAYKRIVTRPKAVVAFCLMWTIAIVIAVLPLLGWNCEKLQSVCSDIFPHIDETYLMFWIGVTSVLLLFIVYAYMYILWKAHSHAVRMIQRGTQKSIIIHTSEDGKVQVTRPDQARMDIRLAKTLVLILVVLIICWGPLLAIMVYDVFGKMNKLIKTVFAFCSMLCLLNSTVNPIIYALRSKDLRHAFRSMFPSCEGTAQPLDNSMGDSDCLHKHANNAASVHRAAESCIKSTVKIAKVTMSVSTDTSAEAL
T3 sequence (P21554 whole entry, the tested form may be a part): as the sequence (P21554 whole entry) above
T6 sequence (P21554 99-414): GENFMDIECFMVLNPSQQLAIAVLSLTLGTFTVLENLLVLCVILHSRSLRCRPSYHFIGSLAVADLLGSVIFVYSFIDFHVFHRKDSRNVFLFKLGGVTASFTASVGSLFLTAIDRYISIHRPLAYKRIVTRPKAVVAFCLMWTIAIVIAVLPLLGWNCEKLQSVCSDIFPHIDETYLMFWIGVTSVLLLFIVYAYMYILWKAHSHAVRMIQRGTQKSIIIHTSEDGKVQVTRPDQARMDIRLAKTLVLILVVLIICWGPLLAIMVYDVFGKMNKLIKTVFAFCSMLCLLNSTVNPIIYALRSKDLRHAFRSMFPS
T1 sequence (P21554 99-414 limits assumed): as the sequence (P21554 99-414) above
T4 sequence (P47746 whole entry): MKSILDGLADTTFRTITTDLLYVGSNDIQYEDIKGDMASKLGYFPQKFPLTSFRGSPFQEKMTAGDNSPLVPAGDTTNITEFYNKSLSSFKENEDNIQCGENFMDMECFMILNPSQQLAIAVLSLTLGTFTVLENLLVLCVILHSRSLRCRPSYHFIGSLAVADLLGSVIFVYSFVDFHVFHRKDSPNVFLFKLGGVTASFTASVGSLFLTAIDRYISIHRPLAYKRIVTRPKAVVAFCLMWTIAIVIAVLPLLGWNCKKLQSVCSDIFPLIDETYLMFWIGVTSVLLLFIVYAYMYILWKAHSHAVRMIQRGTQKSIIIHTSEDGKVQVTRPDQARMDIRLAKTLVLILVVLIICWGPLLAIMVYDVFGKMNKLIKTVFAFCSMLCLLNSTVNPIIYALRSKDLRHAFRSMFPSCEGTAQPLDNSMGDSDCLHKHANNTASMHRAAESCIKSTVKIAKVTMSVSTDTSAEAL
empty nanodisc (Empty ND), sequence (P02647 79-267): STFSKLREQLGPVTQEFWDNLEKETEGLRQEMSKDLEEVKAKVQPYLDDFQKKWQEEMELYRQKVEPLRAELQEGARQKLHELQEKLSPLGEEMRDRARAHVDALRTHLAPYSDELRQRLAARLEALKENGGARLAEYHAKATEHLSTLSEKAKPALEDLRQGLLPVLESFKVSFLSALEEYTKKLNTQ
T2 sequence (P21554 whole entry, the tested form may be a part): as the sequence (P21554 whole entry) above
T5 sequence (P34972 whole entry): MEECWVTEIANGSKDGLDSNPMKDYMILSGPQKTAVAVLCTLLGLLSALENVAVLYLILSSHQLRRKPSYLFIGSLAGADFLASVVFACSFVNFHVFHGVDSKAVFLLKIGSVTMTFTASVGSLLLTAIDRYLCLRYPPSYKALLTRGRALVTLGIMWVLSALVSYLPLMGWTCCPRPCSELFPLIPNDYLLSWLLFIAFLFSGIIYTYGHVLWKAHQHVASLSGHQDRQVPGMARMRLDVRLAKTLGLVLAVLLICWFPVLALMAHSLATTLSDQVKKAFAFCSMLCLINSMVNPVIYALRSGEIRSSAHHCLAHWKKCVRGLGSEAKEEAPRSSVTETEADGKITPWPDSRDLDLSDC

Binder | 0.200 nM huCB1-Nanodisc binding (relative to 10D10N35Y) [9] [fold] | 50.0 nM Empty Nanodisc binding (relative to 10D10N35Y) [10] [fold] | 100 nM huCB1-GFP-SMALP binding (normalized to 10D10N35Y) [11] [fold] | other results
LIBC523797-1 (antibody, V domains shown, Expressed as IgG1 SEFL2 mAb) VH: QVQLQESGPGLVKPSQTLSLTCTVSGGSIRRGGDYWSWIRQHPGKGLEWIGHVYYTGSTKYNPNFKGRATISVNTYKNQFSLKLSSVTAADTAVYYCARDYDILTGYSYYYYGMDVWGQGTTVTVSS VL: DIVMTQSPLSLPVTPGEPASISCRSSQSLLTSYGINYVDWYLQKPGQSPQLLIYQGSNRASGVPDRFSGSGSGTDFTLKISRVEAEDVGVYYCRQAVGLPRTFGQGTKVEIKR |  |  |  | Kd [1]: 18 nM; Antagonist assay IC50 (nM), 2-AG [2]: 2.9 nM; Antagonist assay IC50 (nM), Anandamide [2]: 10.4 nM; Antagonist assay IC50 (nM), CP 55,940 [2]: 3.4 nM; Inverse agonist assay IC50 [2]: 14.1 nM
LIBC680800-1 (yeast-displayed Fab) (Fab, V domains shown) VH: QVQLQESGPGLVKPSQTLSLTCTVSGGSIRRGGDYWAWIRQHPGKGLEWIGHIYQTGSTNYNPRFKGRATISVNTYKNQFSLKLSSVTAADTAVYYCARNYDTLTGYSYYYYGMDVWGQGTTVTVSS VL: DIQMTQSPSSLSASVGDRVTITCRASQSISSYLNWYQQKPGKAPKLLIYSARALSSGVPSRFSGSGSGTDFTLTISSLQPEDFATYYCQQYRKFPLTFGGGTKVEIKR |  |  |  | Relative binding fold change compared to LIBC528116 (Fab) [3]: 2.52 fold; Relative binding fold change compared to LIBC528116 (Fab) [4]: 1.76 fold; Relative binding fold change compared to LIBC528116 (Fab) [5]: 0.78 fold
LIBC523797-1 (antibody, IgG1, V domains shown) VH: QVQLQESGPGLVKPSQTLSLTCTVSGGSIRRGGDYWSWIRQHPGKGLEWIGHVYYTGSTKYNPNFKGRATISVNTYKNQFSLKLSSVTAADTAVYYCARDYDILTGYSYYYYGMDVWGQGTTVTVSS VL: DIVMTQSPLSLPVTPGEPASISCRSSQSLLTSYGINYVDWYLQKPGQSPQLLIYQGSNRASGVPDRFSGSGSGTDFTLKISRVEAEDVGVYYCRQAVGLPRTFGQGTKVEIKR |  |  |  | 100 nM huCB1-SMALP binding (normalized to 10D10) [6]: 7.01 fold; binding result [7]: no binding; binding result [8]: no binding
LIBC527906-1 (antibody, V domains shown, also called LIBC527906-1 + VK1 germline fix(es)) VH: QVQLQESGPGLVKPSQTLSLTCTVSGGSIRRGGDYWGWIRQHPGKGLEWIGHIYQTGSTNYNPNFKDRATISVDTYKNQFSLKLSSVTAADTAVYYCARDYDILTGYSYYYYGMDVWGQGTTVTVSS VL: DIQLTQSPSTLSASVGDRVTITCRASQSISNYLNWYQQKPGKAPKLLIYAASSLHSGVPSRFSGSGSGTDFTLTISSLQPEDFASYYCQQYQSYPLTFGQGTKVEIKR | 8.02 | 0.51 | 3.79 | 
LIBC527968-1 (antibody, V domains shown, also called LIBC527968-1 + VK1 germline fix(es)) VH: QVQLQESGPGLVKPSQTLSLTCTVSGGSIRRGGDYWSWIRQHPGKGLEWIGHIYQSGSTKYNPSFKDRATISVNTYKNQFSLKLSSVTAADTAVYYCARDYDILTGYSYYYYGMDVWGQGTTVTVSS VL: DIQLTQSPSTLSASVGDRVTITCRASQSISNYLNWYQQKPGKAPKLLIYAASSLHSGVPSRFSGSGSGTDFTLTISSLQPEDFASYYCQQYQSYPLTFGQGTKVEIKR | 4.86 | 0.64 | 4.65 | 
LIBC527984-1 (antibody, V domains shown, also called LIBC527984-1 + VK1 germline fix(es)) VH: QVQLQESGPGLVKPSQTLSLTCTVSGGSIRRGGDYWSWIRQHPGKGLEWIGHIYQTGKTNYNPNFKSRATISVNTYKNQFSLKLSSVTAADTAVYYCARDYDILTGYSYYYYGMDVWGQGTTVTVSS VL: DIQMTQSPSTLSASVGDRVTITCRASQSISNYLNWYQQKPGKAPKLLIYAASSLHSGVPSRFSGSGSGTDFTLTISSLQPEDFASYYCQQYQSYPLTFGQGTKVEIKR | 5.21 | 0.61 | 4.85 | 
LIBC528141-1 (antibody, V domains shown) VH: QVQLQESGPGLVKPSQTLSLTCTVSGGSIRRGGDYWSWIRQHPGKGLEWIGHVYQTGSTKYNPRFKGRATISVNTYKNQFSLKLSSVTAADTAVYYCARDYDILTGYSYYYYGMDVWGQGTTVTVSS VL: DIQLTQSPSTLSASVGDRVTITCRASQSISNYLNWYQQKPGKAPKLLIYAASSLHSGVPSRFSGSGSGTDFTLTISSLQPEDFASYYCQQYQSYPLTFGQGTKVEIKR | 6.2 | 0.49 | 8.31 | 
